Substitutions are numbered along the chain they refer to. In names and notes the source's numbering stands. Values belong to the binder of their own block, whether it stands above or below them.
What was measured:
human PD-L1 ECD-His [1] = target: T1, human PD-L1 ECD-His (human, UniProt Q9NZQ7 19-238); assay: SPR, 25 C, antibody captured by anti-human IgG Fc, hPD-L1_ECD-His analyte, 1:1 fit
T1 construct: extracellular domain; Analyte in all SPR and BLI runs; also called hPD-L1_ECD-His; hPD-L1 ECD-His; not shown: His tag
T1 sequence (Q9NZQ7 19-238): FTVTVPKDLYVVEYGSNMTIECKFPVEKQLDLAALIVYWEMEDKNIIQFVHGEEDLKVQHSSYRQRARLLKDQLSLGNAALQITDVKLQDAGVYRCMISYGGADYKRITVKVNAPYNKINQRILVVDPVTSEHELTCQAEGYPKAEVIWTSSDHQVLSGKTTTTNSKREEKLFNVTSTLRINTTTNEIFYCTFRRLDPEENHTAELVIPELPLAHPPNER
Description: Experiments were carried out at 25° C., and measurements were made with serial dilutions of hPD-L1_ECD-His from 55.4 nM to 11.1 nM passing over the captured antibodies in HBS-P+ buffer supplemented with 0.1% (w/v) BSA with a flow rate of […]. All data were analyzed with the evaluation software and curves were fit with a 1:1 Langmuir binding model. Data are representative of two independent experiments performed in duplicate.

human PD-L1 ECD-His [2] = target: T1, human PD-L1 ECD-His; assay: SPR, 25 C, antibody captured by anti-human IgG Fc, hPD-L1-His analyte, 1:1 fit
Description: (§1) The binding affinity and kinetics were measured using surface plasmon resonance (SPR). […] Experiments were carried out at 25° C., and measurements were made with serial dilutions of hPD-L1-His from 19.1 nM to 0.71 nM passing over the captured antibodies in HBS-P+buffer supplemented with 0.1% (w/v) BSA with a flow rate of 25 μL/min. All data were analyzed with the evaluation software and curves were fit with a 1:1 Langmuir binding model. All the data are representative of two independent studies performed in duplicate.

human PD-L1 ECD-His [3] = target: T1, human PD-L1 ECD-His; assay: SPR, ratio of KD to ref-1
Description: as §1

[4] = target: T2, human PD-L1 on cells (PHA-activated human T cells); PD-L1-transfected CHO-S cells; A375 melanoma cells; … (human, UniProt Q9NZQ7 19-290); assay: flow cytometry blocking assay: PD-L1 expressing CHO-S cells incubated with antibody, then biotin-labeled PD-1-Fc and streptavidin-PE; MFI of bound PD-1
T2 construct: whole, on cells; also called PD-L1 expressing T cells; PD-L1 expressing CHO-S cells
T2 sequence (Q9NZQ7 19-290): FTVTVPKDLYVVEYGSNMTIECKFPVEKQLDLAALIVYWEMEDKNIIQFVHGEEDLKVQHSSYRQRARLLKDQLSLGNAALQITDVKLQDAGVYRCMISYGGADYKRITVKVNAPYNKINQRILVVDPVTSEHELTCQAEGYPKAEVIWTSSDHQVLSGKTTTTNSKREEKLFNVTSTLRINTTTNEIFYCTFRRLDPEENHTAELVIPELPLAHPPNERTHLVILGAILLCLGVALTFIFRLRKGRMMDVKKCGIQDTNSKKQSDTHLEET
Description: PD-L1 expressing CHO-S cells were suspended in FACS buffer (PBS with 4% FBS). Various concentrations of tested antibodies were added to the cell suspension (3.5E5 cells/well) and incubated at 4° C. for 30 minutes. […] The cells were washed and then stained with streptavidin-PE at 4° C. for 30 minutes. Flow cytometric analyses were performed using the Cytomics FC 500 (Beckman Coulter Inc.).
Anti-PD-L1 reference antibody and Avastin were used as the positive and negative control, respectively.

human PD-L1 ECD-His [5] = target: T1, human PD-L1 ECD-His; assay: BLI, ratio of KD to ref-1
Description: (§2) Briefly, black 96-well plate was prepared with columns containing 200 μL/well of reagents required for determination of affinity. In general, Octet SA sensors were first placed in wells containing 1×Kinetics Buffer (PBS, 0.1% BSA, 0.02% Tween-20, pH 7.4) for 180 seconds to establish a baseline. […] Sensors were then regenerated by 3×5 second incubations in Regeneration Buffer (10 mM Glycine, pH 1.5) followed by a 5 second incubation in 1×Kinetics Buffer each time. Regeneration was repeated before measurement of each association/dissociation cycle. Sensors were then placed in fresh 1×Kinetics Buffer for 180 seconds to establish a baseline. Association was then measured by incubating the sensors for 5 minutes in wells containing hPD-L1-His followed by transferring to wells containing 1×Kinetics Buffer for 10 minutes to measure dissociation. Kinetics (ka, kd, and […] were measured by global fitting four association/dissociation cycles of data obtained from 1:3 serial dilutions of hPD-L1-His from 38.28 nM to 1.42 nM (one association/dissociation cycle for one concentration) with a 1:1 Langmuir binding model. All data were analyzed with Octet Data Analysis Software v.9.0 and representative of two independent experiments performed in duplicate.
(§3) All the data are representative of two independent experiments performed in duplicate.

[6] = target: T3, recombinant cynomolgus monkey PD-L1_ECD Fc-fusion protein (Sino Biological Inc.) (cynomolgus monkey, UniProt G7PSE7 19-238); assay: ELISA: cynomolgus monkey PD-L1_ECD/Fc coated (9 ng/well), peroxidase-labeled goat anti-human IgG F(ab)'2, TMB, OD450
T3 construct: Bought
T3 sequence (G7PSE7 entry or part of it limits assumed): as the sequence (Q9NZQ7 19-238) above, with A33T, A34S, S62N, R68Q, Q82R, F173L, T185A, T192I, H215L counted along it
Description: The recombinant cynomolgus monkey PD-L1_ECD Fc-fusion proteins were purchased from Sino Biological Inc. PD-L1_ECD/Fc (9 ng per well) were immobilized onto 96-well assay plat by incubating overnight at 4° C. Nonspecific binding sites were blocked using 5% skim milk in PBS for one hour at room temperature. After washing plates three times with PBST, indicated concentrations of anti-PD-L1 antibodies and HLX01 (negative control) were incubated with the immobilized proteins for one hour at room temperature. The plates were washed three times with PBST and then incubated for one hour at room temperature with peroxidase-labeled goat anti-human IgG F(ab)′2 (Jackson ImmunoResearch Laboratories) diluted 1/10,000 in PBS. After washing, plates were developed using TMB (eBioscience). The absorbance was read at the wavelength of 450 nm by Varioskan LUX microplate reader (Thermo Scientific).
HLX01 (anti-CD20 mAb) was used as the negative control.

human PD-L1 ECD-His [7] = target: T1, human PD-L1 ECD-His; assay: BLI Octet RED96, biotinylated antibody on SA sensor, hPD-L1-His analyte, 1:1 fit
Description: as §2, §3

Kd (human PD-L1 ECD-His [1]): 8.85 nM | koff (human PD-L1 ECD-His [1]): 0.00348 s⁻¹ | kon (human PD-L1 ECD-His [1]): 382000 M⁻¹ s⁻¹
B1: PL8 (full-length, N297A mutant human IgG1) (antibody, V domains shown)
VH: EVQLVQSGAEVKKPGSSVKVSCKASGGTFSSYAISWVRQAPGQGLEWMGRIIPIFGTANYAQKFQGRVTITADESTSTAYMELSSLRSEDTAVYYCAREGVLDAFDIWGQGTMVTVSS
VL: LSSELTQDPAVSVALGQTVRITCQGDSLRSYYVSWYQQKPGQAPVLVLYGKNNRPSGIPDRFSGSSSGSTASLTITGAQAEDEADYYCNSRDSTGNLLRVFGGGTKLTVLG

Kd (human PD-L1 ECD-His [1]): 11.2 nM | koff (human PD-L1 ECD-His [1]): 0.0122 s⁻¹ | kon (human PD-L1 ECD-His [1]): 1.05e+06 M⁻¹ s⁻¹ | IC50 (read off the curve) [4]: ~0.03 mg/L
B6: PL6 (full-length, N297A mutant human IgG1) (antibody, V domains shown)
VH: EVQLVQSGAEVKKPGSSVKVSCKASGGTFSSYTINWVRQAPGQGLEWVGKIIPILGIADYAQMFKGRVTITADKFTSTVYMELNSLRSEDTAVYYCARGGYVGYLNAFDIWGQGTMVTVSS
VL: QSVVTQPPSVSGAPGQRVTISCTGSSSNIGAGYDVHWYQQLPGTAPKLLIYGNSNRPSGVPDRFSGSKSGTSASLAITGLQAEDEADYYCQSYDSSLSGGVFGGGTKLTVLG

Improvement over ref-1 (human PD-L1 ECD-His [5]): 2.26 fold | EC50 (read off the curve) [6]: ~0.04 mg/L | Kd (human PD-L1 ECD-His [7]): 1.09 nM | koff (human PD-L1 ECD-His [7]): 0.000305 s⁻¹ | kon (human PD-L1 ECD-His [7]): 298000 M⁻¹ s⁻¹
B7: PL3#7 mtIgG1 (antibody, V domains shown)
VH: QVQLVQSGAEVKKPGSSVKVSCKASGGTFSSYPISWVRQAPGQGLEWIGRIIPILGIANYAQKFQGRVTITADKSTSTAYMELSSLRSEDTAVYYCARSRDGYAFGAFDIWGQGTLVTVSS
VL: QSVVTQPPPVSGAPGQRVTISCTGSSSNIGAGYDVHWYQQLPGTAPKLLIYGNSNRPSGVPDRFSGSKSGTSASLAITGLQAEDEADYYCQTYDSSLSARVVFGGGTKLTVLG
modifications: Antibody was biotinylated (NHS-PEG4-biotin, sites not specified) for the Octet assay of Table 11.
notes: N297A mutant human IgG1

More lines, now with the values behind:

B2: PL2 IgG2 (antibody, V domains shown)
VH: EVQLVQSGGGLVKPGGSLRLSCAASGFTFSSYTMNWVRQAPGKGLEWVSSISSGSDYLYYADSVKGRFTISRDNAKNSLYLQMNSLRAEDTAVYYCARNELRWYPQAGAFDIWGQGTMVTVSS
VL: QSVVTQPPSMSAAPGQNVTISCSGSSSYIESSYVSWYQQLPGTAPRLLIYDDDMRPSGIPDRFSGSKSGTSATLAITGLQTGDEADYYCEIWDSGLGGVFGGGTKLTVL
Kd (human PD-L1 ECD-His [2]): 6.96 nM | koff (human PD-L1 ECD-His [2]): 0.00217 s⁻¹ | kon (human PD-L1 ECD-His [2]): 747000 M⁻¹ s⁻¹ | Improvement over ref-1 (human PD-L1 ECD-His [3]): 1.21 fold

B3: PL2#39 IgG2 (antibody, V domains shown)
VH: B2 VH with Q106K
VL: B2 VL with N17R, E30T, E90K
notes: Human IgG2 backbone
Kd (human PD-L1 ECD-His [2]): 0.779 nM | koff (human PD-L1 ECD-His [2]): 0.00143 s⁻¹ | kon (human PD-L1 ECD-His [2]): 2.04e+06 M⁻¹ s⁻¹ | Improvement over ref-1 (human PD-L1 ECD-His [3]): 10.8 fold

B4: PL2#4 IgG2 (antibody, V domains shown)
VH: B2 VH with Q106L
VL: B2 VL with N17R, S25V, E90K
notes: Human IgG2 backbone
Kd (human PD-L1 ECD-His [2]): 1.27 nM | koff (human PD-L1 ECD-His [2]): 0.00099 s⁻¹ | kon (human PD-L1 ECD-His [2]): 882000 M⁻¹ s⁻¹ | Improvement over ref-1 (human PD-L1 ECD-His [3]): 6.62 fold

B5: PL2#5 IgG2 (antibody, V domains shown)
VH: B2 VH with Q106F
VL: B2 VL with N17R, G95R
notes: Human IgG2 backbone
Kd (human PD-L1 ECD-His [2]): 3.07 nM | koff (human PD-L1 ECD-His [2]): 0.00221 s⁻¹ | kon (human PD-L1 ECD-His [2]): 812000 M⁻¹ s⁻¹ | Improvement over ref-1 (human PD-L1 ECD-His [3]): 2.74 fold
